What was measured:
HeLa Kyoto [1] = experiment: solubility in G1/S (NP-40 vs SDS abundance) (log2 ratio); higher = more soluble; settings: cell cycle stage: G1/S
HeLa Kyoto [2] = experiment: thermal stability score vs G1/S (z-score of summed log2 fold changes over temperatures); higher = more thermally stable than in G1/S
HeLa Kyoto [3] = experiment: melting temperature (median over replicates), in situ; higher = more thermally stable
HeLa Kyoto [4] = experiment: solubility change mitosis vs G1/S (difference of NP-40 vs SDS log2 ratios) (log2 ratio difference); higher = more soluble in mitosis
[5] = cell cycle stage: early G1 (4.5 h after nocodazole release)
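Wherever melting temperature (median over replicates), in situ is given: HeLa Kyoto cells synchronized by double thymidine or nocodazole block, proteins quantified by TMT10plex mass spectrometry, three independent biological replicates.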
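Wherever solubility change mitosis vs G1/S (difference of NP-40 vs SDS log2 ratios) is given: synchronized HeLa Kyoto cells (double thymidine block for G1/S, nocodazole release for mitosis), protein amounts in NP-40 versus SDS lysates quantified by mass spectrometry, three biological replicates.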
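Wherever solubility in G1/S (NP-40 vs SDS abundance) is given: HeLa Kyoto cells arrested at G1/S by double thymidine block, proteins quantified by TMT10plex mass spectrometry in mild NP-40 versus SDS extracts, three biological replicates.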
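Wherever thermal stability score vs G1/S (z-score of summed log2 fold changes over temperatures) is given: synchronized HeLa Kyoto cells, proteins quantified by TMT10plex mass spectrometry, three biological replicates, mitosis taken 0.5 h after nocodazole release, G1/S directly after double thymidine block.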

Sequence	solubility in G1/S (log2) (HeLa Kyoto [1])	thermal stability score (HeLa Kyoto [2]; [5])	thermal stability score (HeLa Kyoto [2]; cell cycle stage: mitosis)	melting temperature (HeLa Kyoto [3]; cell cycle stage: G1/S) [°C]	melting temperature (HeLa Kyoto [3]; cell cycle stage: mitosis) [°C]	solubility change mitosis (log2) (HeLa Kyoto [4])
MTDNIPLQPVRQKKRMDSRPRAGCCEWLRCCGGGEARPRTVWLGHPEKRDQRYPRNVINNQKYNFFTFLPGVLFNQFKYFFNLYFLLLACSQFVPEMRLGALYTYWVPLGFVLAVTVIREAVEEIRCYVRDKEVNSQVYSRLTARGTVKVKSSNIQVGDLIIVEKNQRVPADMIFLRTSEKNGSCFLRTDQLDGETDWKLRLPVACTQRLPTAADLLQIRSYVYAEEPNIDIHNFVGTFTREDSDPPISESLSIENTLWAGTVVASGTVVGVVLYTGRELRSVMNTSNPRSKIGLFDLEVNCLTKILFGALVVVSLVMVALQHFAGRWYLQIIRFLLLFSNIIPISLRVNLDMGKIVYSWVIRRDSKIPGTVVRSSTIPEQLGRISYLLTDKTGTLTQNEMIFKRLHLGTVAYGLDSMDEVQSHIFSIYTQQSQDPPAQKGPTLTTKVRRTMSSRVHEAVKAIALCHNVTPVYESNGVTDQAEAEKQYEDSCRVYQASSPDEVALVQWTESVGLTLVGRDQSSMQLRTPGDQILNFTILQIFPFTYESKRMGIIVRDESTGEITFYMKGADVVMAGIVQYNDWLEEECGNMAREGLRVLVVAKKSLAEEQYQDFEARYVQAKLSVHDRSLKVATVIESLEMEMELLCLTGVEDQLQADVRPTLETLRNAGIKVWMLTGDKLETATCTAKNAHLVTRNQDIHVFRLVTNRGEAHLELNAFRRKHDCALVISGDSLEVCLKYYEYEFMELACQCPAVVCCRCAPTQKAQIVRLLQERTGKLTCAVGDGGNDVSMIQESDCGVGVEGKEGKQASLAADFSITQFKHLGRLLMVHGRNSYKRSAALSQFVIHRSLCISTMQAVFSSVFYFASVPLYQGFLIIGYSTIYTMFPVFSLVLDKDVKSEVAMLYPELYKDLLKGRPLSYKTFLIWVLISIYQGSTIMYGALLLFESEFVHIVAISFTSLILTELLMVALTIQTWHWLMTVAELLSLACYIASLVFLHEFIDVYFIATLSFLWKVSVITLVSCLPLYVLKYLRRRFSPPSYSKLTS [ATP9A]	-0.6	-4.08	-4.01	57.4	58.4	0.0184
MDFQHRPGGKTGSGGVASSSESNRDRRERLRQLALETIDINKDPYFMKNHLGSYECKLCLTLHNNEGSYLAHTQGKKHQTNLARRAAKEAKEAPAQPAPEKVKVEVKKFVKIGRPGYKVTKQRDSEMGQQSLLFQIDYPEIAEGIMPRHRFMSAYEQRIEPPDRRWQYLLMAAEPYETIAFKVPSREIDKAEGKFWTHWNRETKQFFLQFHFKMEKPPAPPSLPAGPPGVKRPPPPLMNGLPPRPPLPESLPPPPPGGLPLPPMPPTGPAPSGPPGPPQLPPPAPGVHPPAPVVHPPASGVHPPAPGVHPPAPGVHPPAPGVHPPTSGVHPPAPGVHPPAPGVHPPAPGVHPPAPGVHPPAPGVHPPPSAGVHPQAPGVHPAAPAVHPQAPGVHPPAPGMHPQAPGVHPQPPGVHPSAPGVHPQPPGVHPSNPGVHPPTPMPPMLRPPLPSEGPGNIPPPPPTN [SF3A2]	0.0115	-1.16	-1.41	50	50.5	0.322
MESRKLISATDIQYSGSLLNSLNEQRGHGLFCDVTVIVEDRKFRAHKNILSASSTYFHQLFSVAGQVVELSFIRAEIFAEILNYIYSSKIVRVRSDLLDELIKSGQLLGVKFIAELGVPLSQVKSISGTAQDGNTEPLPPDSGDKNLVIQKSKDEAQDNGATIMPIITESFSLSAEDYEMKKIIVTDSDDDDDDVIFCSEILPTKETLPSNNTVAQVQSNPGPVAISDVAPSASNNSPPLTNITPTQKLPTPVNQATLSQTQGSEKLLVSSAPTHLTPNIILLNQTPLSTPPNVSSSLPNHMPSSINLLVQNQQTPNSAILTGNKANEEEEEEIIDDDDDTISSSPDSAVSNTSLVPQADTSQNTSFDGSLIQKMQIPTLLQEPLSNSLKISDIITRNTNDPGVGSKHLMEGQKIITLDTATEIEGLSTGCKVYANIGEDTYDIVIPVKDDPDEGEARLENEIPKTSGSEMANKRMKVKHDDHYELIVDGRVYYICIVCKRSYVCLTSLRRHFNIHSWEKKYPCRYCEKVFPLAEYRTKHEIHHTGERRYQCLACGKSFINYQFMSSHIKSVHSQDPSGDSKLYRLHPCRSLQIRQYAYLSDRSSTIPAMKDDGIGYKVDTGKEPPVGTTTSTQNKPMTWEDIFIQQENDSIFKQNVTDGSTEFEFIIPESY [ZBTB33]	-0.035	1.76	3.1	46.4	51.6	-0.162
MAEAALLLLPEAAAERDAREKLALWDRRPDTTAPLTDRQTDSVLELKAAAENLPVPAELPIEDLCSLTSQSLPIELTSVVPESTEDILLKGFTSLGMEEERIETAQQFFSWFAKLQTQMDQDEGTKYRQMRDYLSGFQEQCDAILNDVNSALQHLESLQKQYLFVSNKTGTLHEACEQLLKEQSELVDLAENIQQKLSYFNELETINTKLNSPTLSVNSDGFIPMLAKLDDCITYISSHPNFKDYPIYLLKFKQCLSKALHLMKTYTVNTLQTLTSQLLKRDPSSVPNADNAFTLFYVKFRAAAPKVRTLIEQIELRSEKIPEYQQLLNDIHQCYLDQRELLLGPSIACTVAELTSQNNRDHCALVRSGCAFMVHVCQDEHQLYNEFFTKPTSKLDELLEKLCVSLYDVFRPLIIHVIHLETLSELCGILKNEVLEDHVQNNAEQLGAFAAGVKQMLEDVQERLVYRTHIYIQTDITGYKPAPGDLAYPDKLVMMEQIAQSLKDEQKKVPSEASFSDVHLEEGESNSLTKSGSTESLNPRPQTTISPADLHGMWYPTVRRTLVCLSKLYRCIDRAVFQGLSQEALSACIQSLLGASESISKNKTQIDGQLFLIKHLLILREQIAPFHTEFTIKEISLDLKKTRDAAFKILNPMTVPRFFRLNSNNALIEFLLEGTPEIREHYLDSKKDVDRHLKSACEQFIQQQTKLFVEQLEEFMTKVSALKTMASQGGPKYTLSQQPWAQPAKVNDLAATAYKTIKTKLPVTLRSMSLYLSNKDTEFILFKPVRNNIQQVFQKFHALLKEEFSPEDIQIIACPSMEQLSLLLLVSK [COG3]	0.235	0.629	1.07	50.9	49.7	-0.0733
MSGCDAREGDCCSRRCGAQDKEHPRYLIPELCKQFYHLGWVTGTGGGISLKHGDEIYIAPSGVQKERIQPEDMFVCDINEKDISGPSPSKKLKKSQCTPLFMNAYTMRGAGAVIHTHSKAAVMATLLFPGREFKITHQEMIKGIKKCTSGGYYRYDDMLVVPIIENTPEEKDLKDRMAHAMNEYPDSCAVLVRRHGVYVWGETWEKAKTMCECYDYLFDIAVSMKKVGLDPSQLPVGENGIV [APIP]	0.253	-1.32	-2.26	59.3	57.6	-0.078
MGEIEQRPTPGSRLGAPENSGISTLERGQKPPPTPSGKLVSIKIQMLDDTQEAFEVPQRAPGKVLLDAVCNHLNLVEGDYFGLEFPDHKKITVWLDLLKPIVKQIRRPKHVVVKFVVKFFPPDHTQLQEELTRYLFALQVKQDLAQGRLTCNDTSAALLISHIVQSEIGDFDEALDREHLAKNKYIPQQDALEDKIVEFHHNHIGQTPAESDFQLLEIARRLEMYGIRLHPAKDREGTKINLAVANTGILVFQGFTKINAFNWAKVRKLSFKRKRFLIKLRPDANSAYQDTLEFLMASRDFCKSFWKICVEHHAFFRLFEEPKPKPKPVLFSRGSSFRFSGRTQKQVLDYVKEGGHKKVQFERKHSKIHSIRSLASQPTELNSEVLEQSQQSTSLTFGEGAESPGGQSCRRGKEPKVSAGEPGSHPSPAPRRSPAGNKQADGAASAPTEEEEEVVKDRTQQSKPQPPQPSTGSLTGSPHLSELSVNSQGGVAPANVTLSPNLSPDTKQASPLISPLLNDQACPRTDDEDEGRRKRFPTDKAYFIAKEVSTTERTYLKDLEVITSWFQSTVSKEDAMPEALKSLIFPNFEPLHKFHTNFLKEIEQRLALWEGRSNAQIRDYQRIGDVMLKNIQGMKHLAAHLWKHSEALEALENGIKSSRRLENFCRDFELQKVCYLPLNTFLLRPLHRLMHYKQVLERLCKHHPPSHADFRDCRAALAEITEMVAQLHGTMIKMENFQKLHELKKDLIGIDNLVVPGREFIRLGSLSKLSGKGLQQRMFFLFNDVLLYTSRGLTASNQFKVHGQLPLYGMTIEESEDEWGVPHCLTLRGQRQSIIVAASSRSEMEKWVEDIQMAIDLAEKSSSPAPEFLASSPPDNKSPDEATAADQESEDDLSASRTSLERQAPHRGNTMVHVCWHRNTSVSMVDFSIAVENQLSGNLLRKFKNSNGWQKLWVVFTNFCLFFYKSHQDNHPLASLPLLGYSLTIPSESENIQKDYVFKLHFKSHVYYFRAESEYTFERWMEVIRSATSSASRPHVLSHKESLVY [FARP1]	-0.198	1.1	2.25	49.2	49.1	-0.0824
MASLSLAPVNIFKAGADEERAETARLTSFIGAIAIGDLVKSTLGPKGMDKILLSSGRDASLMVTNDGATILKNIGVDNPAAKVLVDMSRVQDDEVGDGTTSVTVLAAELLREAESLIAKKIHPQTIIAGWREATKAAREALLSSAVDHGSDEVKFRQDLMNIAGTTLSSKLLTHHKDHFTKLAVEAVLRLKGSGNLEAIHIIKKLGGSLADSYLDEGFLLDKKIGVNQPKRIENAKILIANTGMDTDKIKIFGSRVRVDSTAKVAEIEHAEKEKMKEKVERILKHGINCFINRQLIYNYPEQLFGAAGVMAIEHADFAGVERLALVTGGEIASTFDHPELVKLGSCKLIEEVMIGEDKLIHFSGVALGEACTIVLRGATQQILDEAERSLHDALCVLAQTVKDSRTVYGGGCSEMLMAHAVTQLANRTPGKEAVAMESYAKALRMLPTIIADNAGYDSADLVAQLRAAHSEGNTTAGLDMREGTIGDMAILGITESFQVKRQVLLSAAEAAEVILRVDNIIKAAPRKRVPDHHPC [CCT2]	0.193	-0.324	-1.07	54.1	53.1	-0.0739

From the supplement of paper PMC5998384
